From patent US7122652B1, “Polymorphisms in the human hPXR gene and their use diagnostic and therapeutic applications” (priority 1999, dated 2006)

Test system: hPXR-dependent promoter-reporter gene plasmid pGL3(DR3)3TK(−105)
Test: hPXR-dependent promoter-reporter gene (luciferase) assay in co-transfected LS174T cells
Assay type: cell-based, human
Settings: 42 hours; for hPXR-mediated transcriptional activation of the reporter gene upon treatment with rifampicin, relative to wild type hPXR: 10 μM rifampicin, FIG. 6A; for basal activity in the absence of added hPXR activators, relative to wild type hPXR: 0.1% DMSO only, FIG. 6B
Experimental: FIG. 6: LS174T cells were co-transfected with the promoter artificial hPXR dependent reporter gene pGL3(DR3)3Tk(−105), pCMVβ and expression plasmids for hPXR variants, as indicated. Cells were treated for 42 hours with 10 μM rifampicin or 0.1% DMSO, then harvested and analyzed for luciferase and β-galactosidase activities. Data are shown as mean value ±SD. The activity of each hPXR variant in the presence of DMSO only was taken as 1 (A, B) or 100% (C). A) The effect of hPXR variants following 10 μM rifampicin. B) The effect of hPXR variants in the absence of exogenous inducers.
The functional consequences of the protein variants were investigated in LS174T cells. LS174T cells were first co-transfected with wild-type or variant hPXR expression plasmids together with the hPXR-dependent promoter-reporter gene plasmid pGL3(DR3)3TK(−105). […] The cells were treated with the xenobiotic rifampicin, a known activator of human hPXR (Blumberg, Genes Dev (1998), 3195–3205; Lehmann, J Clin Invest (1998), 1016–1023). […] In contrast, hPXR-mediated transcriptional activation was impaired in V140M, D163G and hPXR-2 variants. […] Changes in basal activity of variants are independent from activator-dependent activity.

Molecule | hPXR-mediated transcriptional activation of the reporter gene upon treatment with rifampicin, relative to wild type hPXR | basal activity in the absence of added hPXR activators, relative to wild type hPXR
E18K: hPXR protein variant, amino acid substitution of E to K at position 18 (c. 52G > A, exon 2) (protein, UniProt O75469 1-434, looked up, variant E18K) Nuclear receptor subfamily 1 …: MEVRPKESWNHADFVHCKDTESVPGKPSVNADEEVGGPQICRVCGDKATGYHFNVMTCEGCKGFFRRAMKRNARLRCPFRKGACEITRKTRRQCQACRLRKCLESGMKKEMIMSDEAVEERRALIKRKKSERTGTQPLGVQGLTEEQRMMIRELMDAQMKTFDTTFSHFKNFRLPGVLSSGCELPESLQAPSREEAAKWSQVRKDLCSLKVSLQLRGEDGSVWNYKPPADSGGKEIFSLLPHMADMSTYMFKGIISFAKVISYFRDLPIEDQISLLKGAAFELCQLRFNTVFNAETGTWECGRLSYCLEDTAGGFQQLLLEPMLKFHYMLKKLQLHEEEYVLMQAISLFSPDRPGVLQHRVVDQLQEQFAITLKSYIECNRPQPAHRFLFLKIMAMLTELRSINAQHTQRLLRIQDIHPFATPLMQELFGITGS | as efficiently as wild type hPXR | lower basal activity than wild type hPXR
V140M: hPXR protein variant, amino acid substitution of V to M at position 140 (c. 418G > A, exon 4) (protein, UniProt O75469 1-434, looked up, variant V140M) Nuclear receptor subfamily 1 …: MEVRPKESWNHADFVHCEDTESVPGKPSVNADEEVGGPQICRVCGDKATGYHFNVMTCEGCKGFFRRAMKRNARLRCPFRKGACEITRKTRRQCQACRLRKCLESGMKKEMIMSDEAVEERRALIKRKKSERTGTQPLGMQGLTEEQRMMIRELMDAQMKTFDTTFSHFKNFRLPGVLSSGCELPESLQAPSREEAAKWSQVRKDLCSLKVSLQLRGEDGSVWNYKPPADSGGKEIFSLLPHMADMSTYMFKGIISFAKVISYFRDLPIEDQISLLKGAAFELCQLRFNTVFNAETGTWECGRLSYCLEDTAGGFQQLLLEPMLKFHYMLKKLQLHEEEYVLMQAISLFSPDRPGVLQHRVVDQLQEQFAITLKSYIECNRPQPAHRFLFLKIMAMLTELRSINAQHTQRLLRIQDIHPFATPLMQELFGITGS | 50 % of wild type activity | 130 % of wild type
G36R: hPXR protein variant, amino acid substitution of G to R at position 36 (c. 106G > A, exon 2) (protein, UniProt O75469 1-434, looked up, variant G36R) Nuclear receptor subfamily 1 …: MEVRPKESWNHADFVHCEDTESVPGKPSVNADEEVRGPQICRVCGDKATGYHFNVMTCEGCKGFFRRAMKRNARLRCPFRKGACEITRKTRRQCQACRLRKCLESGMKKEMIMSDEAVEERRALIKRKKSERTGTQPLGVQGLTEEQRMMIRELMDAQMKTFDTTFSHFKNFRLPGVLSSGCELPESLQAPSREEAAKWSQVRKDLCSLKVSLQLRGEDGSVWNYKPPADSGGKEIFSLLPHMADMSTYMFKGIISFAKVISYFRDLPIEDQISLLKGAAFELCQLRFNTVFNAETGTWECGRLSYCLEDTAGGFQQLLLEPMLKFHYMLKKLQLHEEEYVLMQAISLFSPDRPGVLQHRVVDQLQEQFAITLKSYIECNRPQPAHRFLFLKIMAMLTELRSINAQHTQRLLRIQDIHPFATPLMQELFGITGS | as efficiently as wild type hPXR | lower basal activity than wild type hPXR
P27S: hPXR protein variant, amino acid substitution of P to S at position 27 (c. 79C > T, exon 2) (protein, UniProt O75469 1-434, looked up, variant P27S) Nuclear receptor subfamily 1 …: MEVRPKESWNHADFVHCEDTESVPGKSSVNADEEVGGPQICRVCGDKATGYHFNVMTCEGCKGFFRRAMKRNARLRCPFRKGACEITRKTRRQCQACRLRKCLESGMKKEMIMSDEAVEERRALIKRKKSERTGTQPLGVQGLTEEQRMMIRELMDAQMKTFDTTFSHFKNFRLPGVLSSGCELPESLQAPSREEAAKWSQVRKDLCSLKVSLQLRGEDGSVWNYKPPADSGGKEIFSLLPHMADMSTYMFKGIISFAKVISYFRDLPIEDQISLLKGAAFELCQLRFNTVFNAETGTWECGRLSYCLEDTAGGFQQLLLEPMLKFHYMLKKLQLHEEEYVLMQAISLFSPDRPGVLQHRVVDQLQEQFAITLKSYIECNRPQPAHRFLFLKIMAMLTELRSINAQHTQRLLRIQDIHPFATPLMQELFGITGS | as efficiently as wild type hPXR | lower basal activity than wild type hPXR
A370T: hPXR protein variant, amino acid substitution of A to T at position 370 (c. 1108G > A, exon 8) (protein, UniProt O75469 1-434, looked up, variant A370T) Nuclear receptor subfamily 1 …: MEVRPKESWNHADFVHCEDTESVPGKPSVNADEEVGGPQICRVCGDKATGYHFNVMTCEGCKGFFRRAMKRNARLRCPFRKGACEITRKTRRQCQACRLRKCLESGMKKEMIMSDEAVEERRALIKRKKSERTGTQPLGVQGLTEEQRMMIRELMDAQMKTFDTTFSHFKNFRLPGVLSSGCELPESLQAPSREEAAKWSQVRKDLCSLKVSLQLRGEDGSVWNYKPPADSGGKEIFSLLPHMADMSTYMFKGIISFAKVISYFRDLPIEDQISLLKGAAFELCQLRFNTVFNAETGTWECGRLSYCLEDTAGGFQQLLLEPMLKFHYMLKKLQLHEEEYVLMQAISLFSPDRPGVLQHRVVDQLQEQFTITLKSYIECNRPQPAHRFLFLKIMAMLTELRSINAQHTQRLLRIQDIHPFATPLMQELFGITGS | slightly impaired transcriptional activation | 207 % of wild type
D163G: hPXR protein variant, amino acid substitution of D to G at position 163 (c. 488A > G, exon 4) (protein, UniProt O75469 1-434, looked up, variant D163G) Nuclear receptor subfamily 1 …: MEVRPKESWNHADFVHCEDTESVPGKPSVNADEEVGGPQICRVCGDKATGYHFNVMTCEGCKGFFRRAMKRNARLRCPFRKGACEITRKTRRQCQACRLRKCLESGMKKEMIMSDEAVEERRALIKRKKSERTGTQPLGVQGLTEEQRMMIRELMDAQMKTFGTTFSHFKNFRLPGVLSSGCELPESLQAPSREEAAKWSQVRKDLCSLKVSLQLRGEDGSVWNYKPPADSGGKEIFSLLPHMADMSTYMFKGIISFAKVISYFRDLPIEDQISLLKGAAFELCQLRFNTVFNAETGTWECGRLSYCLEDTAGGFQQLLLEPMLKFHYMLKKLQLHEEEYVLMQAISLFSPDRPGVLQHRVVDQLQEQFAITLKSYIECNRPQPAHRFLFLKIMAMLTELRSINAQHTQRLLRIQDIHPFATPLMQELFGITGS | 50 % of wild type activity | approximately 10 % of wild type
